Experiments:
[1] = biological target: biotinylated human D-SDF-1 (Homo sapiens) (UniProt P48061); test: pulldown; settings: single Kd stated after naming 193-C2-002 and 193-G2-012
[2] = biological target: human SDF-1alpha (CXCL12) (Homo sapiens) (UniProt P48061); test: SPR; settings: L-RNA; 5'-40 kDa PEG; Biacore 2000, 37 C
Sequence of human SDF-1alpha (CXCL12) (Homo sapiens) (P48061 22-89): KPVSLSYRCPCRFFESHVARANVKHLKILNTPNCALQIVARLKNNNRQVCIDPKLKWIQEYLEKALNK

Sequence of biotinylated human D-SDF-1 (Homo sapiens) (P48061 22-92): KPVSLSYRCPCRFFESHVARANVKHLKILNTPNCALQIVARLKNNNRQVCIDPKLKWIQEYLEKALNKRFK

| Sequence | Kd [1] | Kd [2] |
| --- | --- | --- |
| GCGUGGUGUGAUCUAGAUGUAGUGGCUGAUCCUAGUCAGGUACGC [193-C2-002 (D)] | 0.3 nM |  |
| GCGUGGUGUGAUCUAGAUGUAUUGGCUGAUCCUAGUCAGGUACGC [NOX-A12 (193-G2-012-5'-PEG)] |  | 0.2 nM |
